In data set [1] the test system is CO/N=C(\C(=O)N[C@@H]1C(=O)N2C(C(=O)O)=C(COC(C)=O)CS[C@H]12)c1csc(N)n1. Kind of data set: purified protein. Particulars: 10 mM HEPES pH 7.5, 150 mM NaCl, 25 °C, standard error in parentheses, n = 3.
Data set [2] has as its system CC(C)(O/N=C(\C(=O)N[C@@H]1C(=O)N2C(C(=O)[O-])=C(C[n+]3ccccc3)CS[C@H]12)c1csc(N)n1)C(=O)O. Kind of data set: purified protein. Particulars: 10 mM HEPES pH 7.5, 150 mM NaCl, 25 °C, standard error in parentheses.

On to KPC-2 (Klebsiella pneumoniae), for which, in data set [1], the Km is 200 (29) μM, the kcat is 76 s⁻¹ and the kcat/Km came to 380000 M⁻¹ s⁻¹. Moreover, in data set [2], the Km is 530 (70) μM, the kcat was determined as 1.9 s⁻¹ and the kcat/Km came out at 3500 M⁻¹ s⁻¹.

One may read the kcat as the number of substrate molecules converted per active site and unit of time at saturation. The term kcat/Km denotes the second-order rate constant that governs catalysis at low substrate concentration.

The values are drawn from PMC7949053, “Natural variants modify Klebsiella pneumoniae carbapenemase (KPC) acyl–enzyme conformational dynamics to extend antibiotic resistance” (The Journal of Biological Chemistry, 2020).
